Patent US20030229005

T1: Dnp-GPVNFRVC(Me)-NH2
T1 chain: GPVNFRVX

B1: human Gelatinase-A (protein)
chain: YNFFPRKPKWDKNQITYRIIGYTPDLDPETVDDAFARAFQVWSDVTPLRFSRIHDGEADIMINFGRWEHGDGYPFDGKDGLLAHAFAPGTGVGGDSHFDDDELWTLGEGQVVRVKYGNADGEYCKFPFLFNGKEYNSCTDTGRSDGFLWCSTTYNFEKDGKYGFCPHEALFTMGGNAEGQPCKFPFRFQGTSYDSCTTEGRTDGYRWCGTTEDYDRDKKYGFCPETAMSTVGGNSEGAPCVFPFTFLGNKYESCTSAGRSDGKMWCATTANYDDDRKWGFCPDQGYSLFLVAAHEFGHAMGLEHSQDPGALMAPIYTYTKNFRLSQDDIKGIQELYGASPDIDLGTGPTPTLGPVTPEICKQDIVFDGIAQIRGEIFFFKDRFIWRTVTPRDKPMGPLLVATFWPELPEKIDAVYEAPQEEKAVFFAGNEYWIYSASTLERGYPKPLTSLGLPPDVQRVDAAFNWSKNKKTYIFAGDKFWRYNEVKKKMDPGFPKLIADAWNAIPDNLDAVVDLQGGGHSYFFKGAYYLKLENQSLKSVKFGSIKSDWLGC
B2: collagenase 1 (protein)
chain: FVLTEGNPRWEQTHLTYRIENYTPDLPRADVDHAIEKAFQLWSNVTPLTFTKVSEGQADIMISFVRGDHRDNSPFDGPGGNLAHAFQPGPGIGGDAHFDEDERWTNNFREYNLHRVAAHELGHSLGLSHSTDIGALMYPSYTFSGDVQLAQDDIDGIQAIYGRSQNPVQPIGPQTPKACDSKLTFDAITTIRGEVMFFKDRFYMRTNPFYPEVELNFISVFWPQLPNGLEAAYEFADRDEVRFFKGNKYWAVQGQNVLHGYPKDIYSSFGFPRTVKHIDAALSEENTGKTYFFVANKYWRYDEYKRSMDPGYPKMIAHDFPGIGHKVDAVFMKDGFFYFFHGTRQYKFDPKTKRILTLQKANSWFNCRKN

Experiments:
[1] = biological target: type IV collagen, P08572
type IV collagen, P08572, sequence (P08572 26-1712, chain 1 of 2): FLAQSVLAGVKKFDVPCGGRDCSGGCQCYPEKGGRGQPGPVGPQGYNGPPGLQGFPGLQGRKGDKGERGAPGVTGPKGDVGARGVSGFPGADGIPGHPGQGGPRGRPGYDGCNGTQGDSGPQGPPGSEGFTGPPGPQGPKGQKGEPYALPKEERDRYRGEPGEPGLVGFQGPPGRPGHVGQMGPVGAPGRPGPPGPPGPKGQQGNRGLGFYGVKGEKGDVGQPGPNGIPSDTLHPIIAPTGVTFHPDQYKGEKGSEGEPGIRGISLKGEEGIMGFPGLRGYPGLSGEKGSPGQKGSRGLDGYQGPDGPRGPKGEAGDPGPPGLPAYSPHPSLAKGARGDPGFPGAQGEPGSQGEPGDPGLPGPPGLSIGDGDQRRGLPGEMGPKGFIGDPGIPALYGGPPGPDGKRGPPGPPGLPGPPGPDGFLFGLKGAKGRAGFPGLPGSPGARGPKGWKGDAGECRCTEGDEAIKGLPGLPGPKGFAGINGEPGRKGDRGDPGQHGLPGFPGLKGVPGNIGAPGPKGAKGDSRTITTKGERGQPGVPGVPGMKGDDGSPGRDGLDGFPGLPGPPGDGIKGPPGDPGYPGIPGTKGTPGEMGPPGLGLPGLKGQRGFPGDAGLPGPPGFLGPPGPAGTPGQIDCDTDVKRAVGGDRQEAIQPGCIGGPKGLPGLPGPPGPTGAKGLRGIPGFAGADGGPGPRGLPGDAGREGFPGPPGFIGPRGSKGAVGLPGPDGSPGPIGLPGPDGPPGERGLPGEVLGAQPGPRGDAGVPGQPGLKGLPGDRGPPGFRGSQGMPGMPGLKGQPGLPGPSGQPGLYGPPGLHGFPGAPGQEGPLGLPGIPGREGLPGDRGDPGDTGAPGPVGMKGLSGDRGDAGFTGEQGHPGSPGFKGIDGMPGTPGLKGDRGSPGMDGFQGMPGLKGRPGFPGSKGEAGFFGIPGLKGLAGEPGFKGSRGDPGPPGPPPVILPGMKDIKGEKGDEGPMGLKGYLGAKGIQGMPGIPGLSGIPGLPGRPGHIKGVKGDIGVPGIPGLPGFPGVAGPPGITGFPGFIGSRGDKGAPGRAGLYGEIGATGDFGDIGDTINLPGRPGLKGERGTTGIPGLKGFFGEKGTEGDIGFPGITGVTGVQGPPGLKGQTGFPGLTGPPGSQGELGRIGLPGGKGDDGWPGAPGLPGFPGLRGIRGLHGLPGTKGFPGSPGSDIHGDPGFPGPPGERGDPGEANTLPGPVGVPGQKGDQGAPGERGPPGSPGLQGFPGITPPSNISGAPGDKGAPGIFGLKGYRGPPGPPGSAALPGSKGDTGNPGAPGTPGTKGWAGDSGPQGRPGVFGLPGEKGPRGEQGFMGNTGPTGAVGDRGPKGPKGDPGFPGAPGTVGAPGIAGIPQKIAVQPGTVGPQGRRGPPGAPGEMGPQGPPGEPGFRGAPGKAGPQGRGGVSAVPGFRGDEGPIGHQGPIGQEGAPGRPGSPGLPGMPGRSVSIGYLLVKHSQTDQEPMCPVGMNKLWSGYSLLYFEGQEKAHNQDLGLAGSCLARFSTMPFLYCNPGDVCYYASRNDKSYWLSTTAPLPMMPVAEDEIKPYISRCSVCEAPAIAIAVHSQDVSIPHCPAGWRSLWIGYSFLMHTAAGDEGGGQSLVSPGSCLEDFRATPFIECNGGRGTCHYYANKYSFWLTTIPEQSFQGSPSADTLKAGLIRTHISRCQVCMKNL
type IV collagen, P08572, sequence (chain, as listed by the source, chain 2 of 2): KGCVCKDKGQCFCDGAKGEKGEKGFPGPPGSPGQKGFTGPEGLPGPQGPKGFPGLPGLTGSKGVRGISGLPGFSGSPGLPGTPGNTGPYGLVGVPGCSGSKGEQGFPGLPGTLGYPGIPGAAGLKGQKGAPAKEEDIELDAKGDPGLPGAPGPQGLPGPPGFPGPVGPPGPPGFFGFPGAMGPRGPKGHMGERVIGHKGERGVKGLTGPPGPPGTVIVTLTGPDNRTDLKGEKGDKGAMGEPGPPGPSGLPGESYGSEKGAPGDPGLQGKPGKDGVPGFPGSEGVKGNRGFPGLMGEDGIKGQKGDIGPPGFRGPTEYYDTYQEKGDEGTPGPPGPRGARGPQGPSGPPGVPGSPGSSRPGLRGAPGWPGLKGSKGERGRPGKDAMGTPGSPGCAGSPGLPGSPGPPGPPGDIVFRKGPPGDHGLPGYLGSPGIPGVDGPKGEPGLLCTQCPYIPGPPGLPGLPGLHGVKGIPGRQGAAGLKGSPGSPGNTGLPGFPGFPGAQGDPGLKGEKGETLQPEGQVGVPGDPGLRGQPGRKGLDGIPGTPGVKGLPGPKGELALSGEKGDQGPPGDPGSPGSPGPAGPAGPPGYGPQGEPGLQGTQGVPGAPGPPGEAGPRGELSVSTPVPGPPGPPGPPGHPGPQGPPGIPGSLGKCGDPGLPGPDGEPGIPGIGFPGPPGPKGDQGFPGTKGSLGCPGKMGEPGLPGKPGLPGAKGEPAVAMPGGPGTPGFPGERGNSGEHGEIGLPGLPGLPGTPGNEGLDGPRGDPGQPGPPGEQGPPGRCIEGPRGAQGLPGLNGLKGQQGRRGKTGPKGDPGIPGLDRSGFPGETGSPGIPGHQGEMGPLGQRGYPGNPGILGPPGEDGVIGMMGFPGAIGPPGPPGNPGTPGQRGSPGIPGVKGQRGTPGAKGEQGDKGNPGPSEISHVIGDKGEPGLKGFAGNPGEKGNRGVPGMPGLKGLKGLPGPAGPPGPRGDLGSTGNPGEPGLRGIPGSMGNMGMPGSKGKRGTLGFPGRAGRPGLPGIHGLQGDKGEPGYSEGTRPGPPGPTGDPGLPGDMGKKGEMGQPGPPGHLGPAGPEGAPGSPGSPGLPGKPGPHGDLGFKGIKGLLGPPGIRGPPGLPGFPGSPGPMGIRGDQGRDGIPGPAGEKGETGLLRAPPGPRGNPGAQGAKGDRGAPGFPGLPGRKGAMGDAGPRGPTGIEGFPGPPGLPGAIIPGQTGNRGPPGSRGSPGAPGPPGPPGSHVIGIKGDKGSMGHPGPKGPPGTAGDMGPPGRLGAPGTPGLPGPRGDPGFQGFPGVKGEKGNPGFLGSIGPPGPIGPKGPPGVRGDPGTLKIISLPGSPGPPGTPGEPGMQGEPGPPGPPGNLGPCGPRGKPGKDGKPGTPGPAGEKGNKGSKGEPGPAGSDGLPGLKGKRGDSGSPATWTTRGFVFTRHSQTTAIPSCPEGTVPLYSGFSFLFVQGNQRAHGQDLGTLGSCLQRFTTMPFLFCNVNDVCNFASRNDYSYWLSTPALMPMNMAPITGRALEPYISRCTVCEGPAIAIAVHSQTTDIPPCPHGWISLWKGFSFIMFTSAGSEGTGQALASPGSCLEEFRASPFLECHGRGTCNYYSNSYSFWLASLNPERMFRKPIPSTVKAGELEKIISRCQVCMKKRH

[2] = biological target: T1, Dnp-GPVNFRVC(Me)-NH2

Protein | cleavage seen on a gel [1] | Selectivity v. Coll-3, substrate 5 uM [2] [unitless]
B1 | No detectable cleavage was observed by gelatinase A in an earlier experiment | 88
B2 | Both collagenase 1 and gelatinase B processed type IV collagen under the conditions used in our experiments | 
